The text below walks through data of patent publication US20260061042A1, “POLYNUCLEOTIDE COMPOSITIONS AND USES THEREOF” (Pfizer Inc., priority 2024, published 2026).

In this data set the test system is E. coli strain CFT073 expressing the fimbrial adhesin PapG. Put plainly: PapG hemagglutination inhibition (HAI) assay on sera of mice immunized with PapG modRNA LNPs. The format is in vivo. Particulars: 50 μl IM; for Step Titer GMT (HAI): weeks 0, 4, bleed week 6, GMT of individual titers; for Step Titer Pool (HAI): weeks 0, 4, bleed week 6, serum pool. An excerpt: Escherichia coli to the uroepithelium of human kidney. The PapG lectin binds to the globoside (GbO4) glycolipid, which is enriched in urinary tract tissue and consists of the tetrasacharide GalNAcβ1-3Galα1-4Galβ1-4Glc linked to ceramide. Here we present the use of a hemagglutination inhibition assay (HAI) to determine vaccine functional responses to protein subunit PapG or mRNA-expressed PapG antigens. In this assay the agglutination of human red blood cells (hRBCs) expressing GbO4 is caused by live E. coli CFT073 bacteria expressing PapG. The HAI assay measures the ability of PapG-elicited antibodies to prevent hRBC agglutination, exemplifying inhibition of the key bacterial adherence mechanism leading to clinical pyelonephritis. The assay was used to characterize the functional activity of PapG monoclonal antibodies (mAbs) raised against a PapG lectin domain subunit antigen. PapG HAI data from a mouse immunogenicity study are described that evaluated various 5 monovalent PapG modRNA LNPs and a PapG subunit comparator.
In this mouse study immunogenicity of different PapG mRNA constructs were evaluated. […]
iii. PapG Hemagglutination Inhibition Assay (HAI) 1. Preparation of Single Use Frozen E. coli CFT073 Banks Frozen bacterial stocks for use in the PapG HAI are stored at a concentration of ˜15 OD/mL. For stock preparation, take 6 ×100 μL of frozen parental strain CFT073 glycerol stock to seed six overnight cultures with ˜85 mL Luria's Broth (LB) each in 250 mL vented flasks. Flasks are shaken at 200 rpm and 37° C. overnight. On the same day, prepare 100 mL LB media with 30% glycerol and 0.4% sucrose by mixing […] 80% Glycerol with 0.8 mL 50% Sucrose in 64 mL LB and pre-chill at 4° C. After ˜16 h growth, determine the OD600 nm of each flask with the SpectraMax M5e plate reader by adding 100 μL culture to 900 μL LB (1:10 dilution). After reading the OD600, harvest cells by pelleting in a centrifuge at 4,000g, 4° C., for 30 minute. Determine the total OD of each of the six flasks, by multiplying the volume by OD/mL of each flask and divide by 15 OD to give the appropriate pellet resuspension volume. Discard supernatants and resuspend all pellets in the pre-chilled LB cryopreservant containing 30% glycerol and 0.4% sucrose, with a final volume as calculated above. Pool all resuspended pellets and mix gently, then aliquot into 1 mL/cryotube, and freeze at −70° C.
2. Preparing 10% hRBC Working Solution From Stock
Gently mix human red blood cells (hRBC) bottle (Rockland) by rocking ˜20×times, pipet out 10 mL of the hRBCs into a 15 ml conical tube. Centrifuge at 2,000 rpm(˜990×g) for 10 minutes and 4° C. Aspirate and discard the supernatant, then resuspend the pellet with 9 mL 4° C. PBS. The packed hRBCs in 15 mL conical tube should constitute roughly 1 mL of this total volume. Store these 10% hRBCs at 4° C. until use. […]
iv. PapG Hemagglutination Inhibition (HAI) Assay
The PapG hemagglutination inhibition (HAI) assay uses human red blood cells (hRBCs), which naturally express the PapG ligand GbO4 (globotetraosyl ceramide) on the cell surface, and the E. coli strain CFT073 expressing the fimbrial adhesin PapG. Upon mixing bacteria with hRBCs, […] cells remain suspended (presenting as a cloudy well), while no binding results in the red blood cells falling out of solution towards the center of the well (observed as pellet).
The total final well volume is 100 μL, with serum dilutions comprising 25 μL of this volume, strain CFT073 cells in […] volume, and hRBCs in a 50 μL volume. The assay plate is a V-bottom plate to which 25 μL 4° C. PBS is initially added to all wells. The positive control wells receive an additional 25 μL 4° C. PBS. The no-serum negative control consists of E. coli CFT073 cells plus hRBCs only (resulting agglutinated well appears cloudy). To accommodate pre-diluted sera transferred from the serum Master Dilution plate (MDP) an extra 5 μL 4° C. PBS is added to wells in Row A of the assay plate (columns 1 to 12). […]

B1: BMD576_PapG-DSF K172A_DAF-GPI: monovalent PapG modRNA LNP; RNA construct SEQ ID NO: 64 (nucleic acid)
chain: AGGAGGACUGGUCGAACCUGCAUAGUGAUCAUAAGGUCAGCAUAGCCACCAUGGAGACCGACACCCUCCUGCUGUGGGUGCUGUUACUGUGGGUGCCCGGUAGCACCGGCUGGAACAACAUCGUGUUCUACAGCCUGGGCAACGUGAACAGCUACCAAGGCGGCAACGUGGUGAUCACACAGAGACCUCAGUUCAUCACAAGCUGGAGACCCGGCAUCGCCACCGUGACCUGGAAUCAGUGCAACGGCCCCGAGUUCGCCGACGGCAGCUGGGCCUACUACAGAGAGUACAUCGCCUGGGUGGUGUUCCCCAAGAAGGUGAUGACCAAGAACGGCUACCCCCUGUUCAUCGAGGUGCACAACAAGGGCAGCUGGAGCGAGGAGAACACCGGCGACAGCGACAGCUACUUCUUCCUGAAGGGCUACAAGUGGGACGAGAGAGCCUUCGACGCCGGCAACCUGUGUCAGAAGCCGGGGGAGACGACCCGGCUUACAGAAAAGUUCAACGACAUCAUCUUCAAGGUGGCCCUGCCCGCCGACCUGCCCCUGGGCGACUACAGCGUGACCAUCCCCUACACAAGCGGCAUUCAGAGACACUUCGCUAGCUACCUGGGCGCUAGAUUCGCCAUCCCCUACAACGUGGCCAAGACCCUGCCUAGAGAGAACGAGAUGCUGUUCCUGUUCAAGAACAUCGGCGGCUGCAGACCUAGCGCUCAGAGCCUGGAGAUCAAGCACGGCGACCUGAGCAUCAACAGCGCCAACAACCACUACGCCGCUCAGACCCUGAGCGUGAGCUGCGACGUGCCCGCCAACAUCAGAUUCAUGCUGCUGAGAUCAACCACCCCCACCUACAGCCACGGCAAGAAGUUCAGCGUGGGCCUGGGCCACGGCUGGGACAGCAUCGUGAGCGUGAACGGCGUGGACACGGGCGAGACCACUAUGCGUUGGUACAAGGCCGGCACACAGAGCCUGACCAUCGGCAGCAGACUGUACGGCGAGAGCAGCAAGAUUCAACCGGGCGUGCUUAGUGGUUCCGCCACCCUGCUGAUGAUUCUGCCCGGCGGAAGCAGCGGCGGCGCCGACGUGCAGAUCAACAUCAGAGGCAACGUGUACAUACCCCCUUCGAGCGGAGGCGGCGGAUCGUCCGGCUCCGGGAGCAGCAGCGGCACCACACGGCUGCUGAGCGGCCACACCUGCUUCACCCUGACCGGCCUGCUGGGCACCCUGGUGACCAUGGGCCUGCUGACCUGAUGAGCUCGCUUUCUUGCUGUCCAAUUUCUAUUAAAGGUUCCUUUGUUCCCUAAGUCCAACUACUAAACUGGGGGAUAUUAUGAAGGGCCUUGAGCAUCUGGAUUCUGCCUAAUAAAAAACAUUUAUUUUCAUUGCAAAAAAAAAAAAAAAAAAAAAAAAAAAAAAAAAAAAAAAAAAAAAAAAAAAAAAAAAAAAAAAAAAAAAAAAAAAAAAAAAA
modifications: modRNA in LNP
Regarding B1, the “Step Titer GMT (HAI)” value (0.2 μg) is reported as 50,054, the “Step Titer GMT (HAI)” value (1 μg) was 69,595 and the “Step Titer GMT (HAI)” value (5 μg) is recorded as 141,214. Further, the “Step Titer Pool (HAI)” value is, setting by setting: (0.2 μg) 54,000; (1 μg) 27,000; (5 μg) 81,000.

B2: BMD562_PapG-DSF K172A_DAF-GPI: monovalent PapG modRNA LNP; RNA construct SEQ ID NO: 63 (nucleic acid)
chain: AGGAAAUAAGAGAAAGAGGAUAAGACGACUAAGGAGACAUACAGAAUAAGAGGCAGCCACCAUGGAGACCGACACCCUCCUGCUGUGGGUGCUGUUACUGUGGGUGCCCGGUAGCACCGGCUGGAACAACAUCGUGUUCUACAGCCUGGGCAACGUGAACAGCUACCAAGGCGGCAACGUGGUGAUCACACAGAGACCUCAGUUCAUCACAAGCUGGAGACCCGGCAUCGCCACCGUGACCUGGAAUCAGUGCAACGGCCCCGAGUUCGCCGACGGCAGCUGGGCCUACUACAGAGAGUACAUCGCCUGGGUGGUGUUCCCCAAGAAGGUGAUGACCAAGAACGGCUACCCCCUGUUCAUCGAGGUGCACAACAAGGGCAGCUGGAGCGAGGAGAACACCGGCGACAGCGACAGCUACUUCUUCCUGAAGGGCUACAAGUGGGACGAGAGAGCCUUCGACGCCGGCAACCUGUGUCAGAAGCCGGGGGAGACGACCCGGCUUACAGAAAAGUUCAACGACAUCAUCUUCAAGGUGGCCCUGCCCGCCGACCUGCCCCUGGGCGACUACAGCGUGACCAUCCCCUACACAAGCGGCAUUCAGAGACACUUCGCUAGCUACCUGGGCGCUAGAUUCGCCAUCCCCUACAACGUGGCCAAGACCCUGCCUAGAGAGAACGAGAUGCUGUUCCUGUUCAAGAACAUCGGCGGCUGCAGACCUAGCGCUCAGAGCCUGGAGAUCAAGCACGGCGACCUGAGCAUCAACAGCGCCAACAACCACUACGCCGCUCAGACCCUGAGCGUGAGCUGCGACGUGCCCGCCAACAUCAGAUUCAUGCUGCUGAGAUCAACCACCCCCACCUACAGCCACGGCAAGAAGUUCAGCGUGGGCCUGGGCCACGGCUGGGACAGCAUCGUGAGCGUGAACGGCGUGGACACGGGCGAGACCACUAUGCGUUGGUACAAGGCCGGCACACAGAGCCUGACCAUCGGCAGCAGACUGUACGGCGAGAGCAGCAAGAUUCAACCGGGCGUGCUUAGUGGUUCCGCCACCCUGCUGAUGAUUCUGCCCGGCGGAAGCAGCGGCGGCGCCGACGUGCAGAUCAACAUCAGAGGCAACGUGUACAUACCCCCUUCGAGCGGAGGCGGCGGAUCGUCCGGCUCCGGGAGCAGCAGCGGCACCACACGGCUGCUGAGCGGCCACACCUGCUUCACCCUGACCGGCCUGCUGGGCACCCUGGUGACCAUGGGCCUGCUGACCUGAUGAGCUCGCUUUCUUGCUGUCCAAUUUCUAUUAAAGGUUCCUUUGUUCCCUAAGUCCAACUACUAAACUGGGGGAUAUUAUGAAGGGCCUUGAGCAUCUGGAUUCUGCCUAAUAAAAAACAUUUAUUUUCAUUGCAAAAAAAAAAAAAAAAAAAAAAAAAAAAAAAAAAAAAAAAAAAAAAAAAAAAAAAAAAAAAAAAAAAAAAAAAAAAAAAAAA
modifications: modRNA in LNP
Regarding B2, where the note is “1 μg”, the “Step Titer GMT (HAI)” value is reported as 65,875 and the “Step Titer Pool (HAI)” value was 81,000.
